Test system: MS2 coat protein
Assay: apparent KD of MS2 coat protein; designed switch direction (-1 OFF switch, 1 ON switch): 1; higher = weaker reporter binding
Procedure, shortened: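 RNA switches sharing common flanks were transcribed by stalled E. coli RNA polymerase on Illumina chips. A doubling series of SNAP-549-labelled MS2 coat protein, from 0.7 or 1.5 nM to 3 µM, was applied in Tris-HCl pH 7.5 buffer with KCl, MgCl2, BSA, DTT, tRNA and Tween-20. Each step lasted 0.8–1.5 h at the bottom of the series and 10–20 min at the top. Normalised cluster fluorescence was curve-fitted, giving apparent KD as the per-design median over clusters.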

[1] = input ligand: microRNA oligo, concentration not stated
[2] = Eterna round: R95, input ligand: FMN 200 uM
[3] = Eterna round: R95, input ligand: microRNA oligo, concentration not stated
[4] = Eterna round: R95, input ligand: none

For “GCGAGCGUACUUGCUACAUGAGGAUCACCCAUGUUCGUUGGACAGGAUAUGGUACCGUUUCGGUACCAGAAGGGUUCACAUGUG [JL SSNG3 3.78] (Eterna round: R96, puzzle: Same State NG 3)”, the “apparent KD of MS2 coat protein” value (input ligand: FMN 200 uM) was 142 nM, the “apparent KD of MS2 coat protein” value [1] was 158 nM and the “apparent KD of MS2 coat protein” value (input ligand: none) was 242 nM.

“GAGGGACAGACCAACAUGAGGAUCACCCAUGUCCUCGCAGGUCAGGAUAUCCCGCCAACAGGCGAGGAGAAGGGACGGUGAACC (Eterna round: R96, puzzle: Same State NG 3)” was tested, and the “apparent KD of MS2 coat protein” value (input ligand: FMN 200 uM) was 610 nM, the “apparent KD of MS2 coat protein” value [1] was 672 nM and the “apparent KD of MS2 coat protein” value (input ligand: none) was 713 nM.

In the case of “ACAUGAGGAUCACCCAUGUCUUUAUCCGAUUCUUCAUUUACGUAGGAUAUCGUCUAUACUAUCAUCGAGAAGGACGUUCUUUAA [JR_SSNG3_Sub070] (Eterna round: R96, puzzle: Same State NG 3)”, the “apparent KD of MS2 coat protein” value [1] is reported as 13.9 nM.

“AGUCCAGCCUGAGCUGGACAAAAGCAUGUACAUGAGGAUCACCCAUGUUCAUGUACAAGCUUUUUGCUCGUCUUGAA [salish99_208a_r3_095x] (puzzle: Sensor for hsa-mir-208a)” was tested, and the “apparent KD of MS2 coat protein” value [2] was 710 nM, the “apparent KD of MS2 coat protein” value [3] was 13.5 nM and the “apparent KD of MS2 coat protein” value [4] was 817 nM.

In the case of “GUUACAUGAGGAUCACCCAUGUAUGUGUGGGAGUAAGUGUCUUAGGAUAUCUAGUAUGUAAUUUAAGAGAAGGAAGAUUGUUGU [JMF's solution 56] (Eterna round: R96, puzzle: Same State NG 3)”, the “apparent KD of MS2 coat protein” value (input ligand: FMN 200 uM) is reported as 217 nM, the “apparent KD of MS2 coat protein” value [1] is reported as 264 nM and the “apparent KD of MS2 coat protein” value (input ligand: none) is reported as 261 nM.

With “GGAGCCGGCCUAGGAUAUUUCAUUUAAAAACAUGAGGAUCACCCAUGUAGGCCAGAAGGCCUUGGGAAGAAGGAGGUCGGCUCC [Loop Effect - U24,U25] (Eterna round: R96, puzzle: Same State NG 2)” the “apparent KD of MS2 coat protein” value (input ligand: FMN 200 uM) was 11.2 nM, the “apparent KD of MS2 coat protein” value [1] was 22.7 nM and the “apparent KD of MS2 coat protein” value (input ligand: none) was 44.2 nM.

For “UGUUGUAUUACAGGAUAUCUAUUGUUAUUAUUUAGAGAAGGGUAUUCACAUGAGGAUCACCCAUGUAUAUACGAGGAAGUUGUG [JMF's solution 74] (Eterna round: R96, puzzle: Same State NG 1)”, the “apparent KD of MS2 coat protein” value [1] was 33 nM.

For “AUUAUACAUGAGGAUCACCCAUGUCAACGUAGUCGAGGAUAUGGGCAGCCGUGAGGCGUACUAGAAGGCGAAGAGA [Mat - Same State 1 - Mod of JL - D8] (puzzle: Same State 1)”, the “apparent KD of MS2 coat protein” value [2] was 84.3 nM, the “apparent KD of MS2 coat protein” value [3] was 235 nM and the “apparent KD of MS2 coat protein” value [4] was 385 nM.

“AGGGAGGAAGCUGAGGAUAUCGUAAGGAGGACAUGAGGAUCACCCAUGUGUGUAGAAUUGGAGGACGAGAAGGCAGAGGAGUGGG [JR_SS2_Sub053] (puzzle: Same State 2)” was tested, and the “apparent KD of MS2 coat protein” value [2] was 34 nM, the “apparent KD of MS2 coat protein” value [3] was 21.3 nM and the “apparent KD of MS2 coat protein” value [4] was 37 nM.

With “AUACAUGAGGAUCACCCAUGUAAUUAAUUAACUAGUAAGAUCUAGGAUAUCAGCUCGAAUAGAGCUGAGAAGGAGAUCACAUGU [SSNG3/21-A1] (Eterna round: R96, puzzle: Same State NG 3)” the “apparent KD of MS2 coat protein” value [1] was 31.2 nM.

In the case of “UUCUCUUUUUAGAGACAAGCUUUUUGAUCACAUGAGGAUCACCCAUGUCUCGUCUUAUGAUUUACUUCGUUAUUUCU [BA Sensor hsa-mir-208a - 2 - 6] (puzzle: Sensor for hsa-mir-208a)”, the “apparent KD of MS2 coat protein” value [2] is reported as 160 nM, the “apparent KD of MS2 coat protein” value [3] is reported as 15.6 nM and the “apparent KD of MS2 coat protein” value [4] is reported as 125 nM.

With “UAACAGUACAAUUUAGAUCUACAUGAGGAUCACCCAUGUACUGAGGAUAUCAGCUCGAUUAGAGCUGAGAAGGCAGAAGAACUA [SSNG3/11-A2] (Eterna round: R96, puzzle: Same State NG 3)” the “apparent KD of MS2 coat protein” value (input ligand: FMN 200 uM) was 48.5 nM, the “apparent KD of MS2 coat protein” value [1] was 173 nM and the “apparent KD of MS2 coat protein” value (input ligand: none) was 344 nM.

“ACAUGAGACUAAGGAUAUGGUGUACCUACAUGUGACAUGAGGAUCACCCAUGUGGUAAGUAUGACUCAGAAGGUAGAGAUAUGU [Equivalance 75 - Jieux - Same State NG 2] (Eterna round: R96, puzzle: Same State NG 2)” was tested, and the “apparent KD of MS2 coat protein” value (input ligand: FMN 200 uM) was 37.9 nM, the “apparent KD of MS2 coat protein” value [1] was 280 nM and the “apparent KD of MS2 coat protein” value (input ligand: none) was 436 nM.

With “AGCUAUCGCGUACGAUAGCUGAAGCAUGUACAUGAGGAUCACCCAUGUCAUGUACAGGCUUUUUGCUCGUCUUAUUG [JL-shm-2.27 JL mod] (puzzle: Sensor for hsa-mir-208a)” the “apparent KD of MS2 coat protein” value [2] was 770 nM, the “apparent KD of MS2 coat protein” value [3] was 16.4 nM and the “apparent KD of MS2 coat protein” value [4] was 625 nM.

For “CAAGUACAUGAGGAUCACCCAUGUGGAAGAGAUGCAGGAUAUGUGGAGGAAGGGAGUGUAACAGAAGGGCAAGGAG [JR_SS!_Sub020] (puzzle: Same State 1)”, the “apparent KD of MS2 coat protein” value [2] was 39.9 nM, the “apparent KD of MS2 coat protein” value [3] was 45.6 nM and the “apparent KD of MS2 coat protein” value [4] was 50.8 nM.

“AGUCCAGCCUGAGCUGGACAAAAGCAUGUACAUGAGGAUCACCCAUGUCAUGUACAAGCUUUUUGCUCAUCUUAAAA [Mat - hsa-mir-208a - Mod of JL - D11] (Eterna round: R96, puzzle: Sensor for hsa-mir-208a)” was tested, and the “apparent KD of MS2 coat protein” value (input ligand: FMN 200 uM) was 750 nM, the “apparent KD of MS2 coat protein” value [1] was 11.8 nM and the “apparent KD of MS2 coat protein” value (input ligand: none) was 886 nM.

For “GCUCGAUGUGUUGUCUACAUGAGGAUCACCCAUGUAGAUGCGGAGGAUAUCUACGUGCUUUAUGUAGAGAAGGUCGUAUCGAGC [SameState NG3 #85] (Eterna round: R96, puzzle: Same State NG 3)”, the “apparent KD of MS2 coat protein” value (input ligand: FMN 200 uM) was 18 nM, the “apparent KD of MS2 coat protein” value [1] was 23.7 nM and the “apparent KD of MS2 coat protein” value (input ligand: none) was 34.3 nM.

In the case of “UGUUGUAUUACAGGAUAUCUAUUAUUUUAAUUUAGAGAAGGGUAUUCACAUGAGGAUCACCCAUGUAUAUACGAGGAAGUUGUG [JMF's solution 21] (Eterna round: R96, puzzle: Same State NG 1)”, the “apparent KD of MS2 coat protein” value [1] is reported as 38.4 nM.

With “GGUGCAAUUAACGCCUACAUGAGGAUCACCCAUGUAUGUAGGCAGGAUAUCGUUUGCUUUGCAAACGAGAAGGGCUGUAGUACC [JL SSNG3 1.14] (Eterna round: R96, puzzle: Same State NG 3)” the “apparent KD of MS2 coat protein” value (input ligand: FMN 200 uM) was 35.6 nM, the “apparent KD of MS2 coat protein” value [1] was 89.3 nM and the “apparent KD of MS2 coat protein” value (input ligand: none) was 84.5 nM.

For “GAGGAGGAUACAGGAUAUAUACAUGAGGAUCACACAUACAUGACAUGAGGAUCACCCAUGUUUGUAUAGAAGGGUAAGAGGAGG [Seems to be working] (Eterna round: R96, puzzle: Same State NG 2)”, the “apparent KD of MS2 coat protein” value (input ligand: FMN 200 uM) was 51.2 nM, the “apparent KD of MS2 coat protein” value [1] was 24.2 nM and the “apparent KD of MS2 coat protein” value (input ligand: none) was 66.1 nM.

In the case of “UAGAGAGGAAGCGAGGAUAUCGUGUUAGGUACAUGAGGAUCACCCAUGUUUUAGGUAGAGGUAGGCGAGAAGGCGCAGGAGAGGA [JR_SS2_Sub091] (puzzle: Same State 2)”, the “apparent KD of MS2 coat protein” value [2] is reported as 24.9 nM, the “apparent KD of MS2 coat protein” value [3] is reported as 29.2 nM and the “apparent KD of MS2 coat protein” value [4] is reported as 24.4 nM.

“CGUCCAGCCUGAGCUGGACAAAAGCAUGUACAUGAGGAUCACCCAUGUUCAUGUACAAGCUUUUUGCUCGUCUUAGU [salish99_208a_r3_073] (puzzle: Sensor for hsa-mir-208a)” was tested, and the “apparent KD of MS2 coat protein” value [2] was 557 nM, the “apparent KD of MS2 coat protein” value [3] was 14.5 nM and the “apparent KD of MS2 coat protein” value [4] was 646 nM.

With “GGUAAGAAUUAAGGAUAUCGAGUACAUAUGUUUAACAUGAGGAUCACCCAUGUGGGUUGCGGUAUCGAGAAGGUAAAUUACAAG [Mat - same State NG 2 - JL mod - D62] (Eterna round: R96, puzzle: Same State NG 2)” the “apparent KD of MS2 coat protein” value (input ligand: FMN 200 uM) was 40.7 nM, the “apparent KD of MS2 coat protein” value [1] was 35.7 nM and the “apparent KD of MS2 coat protein” value (input ligand: none) was 41.8 nM.

For “AGAUCAUGACGAGGAUAUCCGACAUGAGGAUCACCCAUGUAUGUCGGAGGACGCGUACGUCCAAUGGAGAAGGCGUCGUGGUCA [JL SSNG2 1.03] (Eterna round: R96, puzzle: Same State NG 2)”, the “apparent KD of MS2 coat protein” value (input ligand: FMN 200 uM) was 18.2 nM, the “apparent KD of MS2 coat protein” value [1] was 73.7 nM and the “apparent KD of MS2 coat protein” value (input ligand: none) was 82.5 nM.

In the case of “GCUCGACUGAUGGCCUACAUGAGGAUCACCCAUGUGACUGGGCAGGAUAUCUAGAUGCAGGAUGUAGAGAAGGGCCUGUCGAGC [SameState NG3 #43] (Eterna round: R96, puzzle: Same State NG 3)”, the “apparent KD of MS2 coat protein” value (input ligand: FMN 200 uM) is reported as 589 nM, the “apparent KD of MS2 coat protein” value [1] is reported as 201 nM and the “apparent KD of MS2 coat protein” value (input ligand: none) is reported as 426 nM.

With “CUGAGAUGUCAAGGAUAUCACGUCGAUUAGACGUGAGAAGGUGAUCUGCACAUGAGGAUCACCCAUGUGUUACAUGGAAUUCAG [Brourd's SSNG1/1-A2 mod 12] (Eterna round: R96, puzzle: Same State NG 1)” the “apparent KD of MS2 coat protein” value (input ligand: FMN 200 uM) was 567 nM, the “apparent KD of MS2 coat protein” value [1] was 278 nM and the “apparent KD of MS2 coat protein” value (input ligand: none) was 889 nM.

With “AAAGAACAUGAGGAUCACCCAUGUGGAAGAGGCACAGGAUAUCACCUCGCACGUGCGAGGUGAGAAGGGUGAUGGU [Zalecema] (puzzle: Same State 1)” the “apparent KD of MS2 coat protein” value [2] was 122 nM, the “apparent KD of MS2 coat protein” value [3] was 80.7 nM and the “apparent KD of MS2 coat protein” value [4] was 128 nM.

For “GGAGGACAUGAGGAUCACCCAUGUGGAUGGGCGCUAGGAUAUGCGAGAGGAUGGAGAGAAGCAGAAGGAGUGGGUU [JR_SS1_Sub042] (puzzle: Same State 1)”, the “apparent KD of MS2 coat protein” value [3] was 79.6 nM.
